In PMC4703965, “Inhibition of Canonical NF-κB Signaling by a Small Molecule Targeting NEMO-Ubiquitin Interaction” (Scientific Reports, 2016):
Substitutions are numbered along the chain they refer to. Numbers in names are those of the source.

B1: NEMO_(UBAN) (258–350) (domain or fragment, UniProt Q9Y6K9 258-350, looked up)
chain: MQLEDLKQQLQQAEEALVAKQEVIDKLKEEAEQHKIVMETVPVLKAQADIYKADFQAERQAREKLAEKKELLQEQLEQLQREYSKLKASCQES
notes: NEMO (IKKγ, NF-κB essential modulator), UBAN / CC2-LZ region, residues 258–350; 15N-labelled for the NMR experiment; The His6 tag was cleavable by 3C or TEV protease; also called NEMO_(258–350); NEMO_(UBAN) WT; source: cloned into pET vectors, recombinant, purified (details in the Supporting Information); not shown: His6, N-terminal, cleaved
B2: NEMO_(UBAN) C347S (258–350) (domain or fragment, UniProt Q9Y6K9 258-350, looked up)
chain: B1 chain with C90S
notes: NEMO (IKKγ), UBAN / CC2-LZ region, residues 258–350 with C347S; Used for SAXS, for MST/ITC and unlabelled in the NMR experiments with 15N-linUb2; also called NEMO_(258–350) C347S; source: cloned into pET vectors, recombinant, purified (details in the Supporting Information); not shown: His6, N-terminal, cleaved

Assays:
[1] = biological target: the molecule itself; experiment: SEC-MALS; size exclusion chromatography (SEC) in combination with static light scattering (SLS); in solution
linear Ub2 [2] = biological target: T1, linear Ub2 (UniProt P0CG48 1-76; P0CG48 1-76); experiment: NMR titration; 1H,15N TROSY of 100 μM 15N-labeled NEMO_(UBAN) (258–350) without or with unlabeled linear Ub2 at 2:1 (NEMO_(UBAN):Ub2); details: both partners purified
T1 construct: ubiquitin, distal moiety of Met1-linked linear di-ubiquitin (two ubiquitins head to tail on one chain); ubiquitin, proximal moiety of Met1-linked linear di-ubiquitin; also called linUb2; methionine-1-linked linear di-ubiquitin; source: recombinant

linear Ub2 [3] = biological target: T1, linear Ub2; experiment: MST + ITC; Microscale Thermophoresis and Isothermal Titration Calorimetry of NEMO_(UBAN) C347S with linUb2; conditions not shown; details: both partners purified
[4] = biological target: the molecule itself; experiment: SAXS; 293 K; 300 mM NaCl, 50 mM Tris-HCl pH 8.0; NEMO_(UBAN) C347S 2.8–9.9 mg/ml; NEMO_(UBAN) C347S and linear Ub2 mixed 2:1 (3.5–12.9 mg/ml) and 2:2 (4.9–12.1 mg/ml)

Binder | stoichiometry N [1] | binding result (linear Ub2 [2]) | Kd (linear Ub2 [3]) | stoichiometry N [4]
B1 | 2 | binds |  | 
B2 |  |  | 1000 to 2000 nM | 2
